Measured values reported in the supplement of paper PMC10724198.
± gives the standard deviation of the averaged measurements.

Tested on: Saccharomyces cerevisiae
Assay: protein stability index of tFT-peptide fusion (C-terminal peptide) (PSI (0-1 scale)); higher = more stable (slower turnover)
Details: genetic background: wild type; temperature: 30 C
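Further: PSI is a weighted mean of sequencing reads over stability bins, variants kept only with over 10 reads, mCherry proximal and sfGFP distal, peptide attached via GGGS linker.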

Sequence	protein stability index
PLYTSFSPSFYL	0.669 ± 0.043
PMFESFHLPAPI	0.715 ± 0.018
PNAFTEPTHPGR	0.742 ± 0.066
PNFYPLWLNLPL	0.813 ± 0.086
PNLIFHHSFSFL	0.692 ± 0.031
PNPTPYRRPCPP	0.6846 ± 0.0041
PNTSVAATPHDF	0.67 ± 0.085
PNVSPTPPYSSP	0.691 ± 0.023
PNYQRRTKTNSP	0.703 ± 0.04
PPAALPPSTLFS	0.673 ± 0.04
PPAFFPHSRPLL	0.598 ± 0.038
PPAGCSPSPRSP	0.66 ± 0.056
PPALPPTRPPVS	0.696 ± 0.047
PPALRPNPPLPL	0.7769 ± 0.0016
PPAPLPSPRRSL	0.696 ± 0.065
PPAPPPPLLNLP	0.714 ± 0.014
PPAPPTSLPSPL	0.726 ± 0.019
PPAPSPPQPSPL	0.686 ± 0.0088
PPAPSPPVPPQL	0.727 ± 0.026
PPAPSSLPSPPS	0.715 ± 0.017
PPAPTPLSPLAS	0.693 ± 0.051
PPAPTPSPSPPP	0.68 ± 0.1
PPARATPHDRCP	0.724 ± 0.037

Sequence	protein stability index
PPASLPPPTAFN	0.764 ± 0.049
PPASLRRPRSYL	0.748 ± 0.025
PPASPSPSLLSP	0.6491 ± 0.0025
PPASSPPSRPPP	0.62626 ± 0.00058
PPATPPPPPPFL	0.68 ± 0.15
PPATPPRPLLPP	0.672 ± 0.091
PPCPVTSFRPSI	0.755 ± 0.05
PPDPPPHASPAP	0.72 ± 0.03
PPDRNPANTSCD	0.638 ± 0.029
PPFPPDTLPLLP	0.746 ± 0.017
PPFPPPCFPPPL	0.72 ± 0.0084
PPFRPFTSPVTY	0.579 ± 0.031
PPFSPSPPHVCP	0.673 ± 0.045
PPFVLLVPTSLS	0.68 ± 0.018
PPGLPLSPCPPP	0.685 ± 0.061
PPGSFWLQARVR	0.705 ± 0.071
PPGYGISYLLIE	0.66 ± 0.07
PPHAYTSTPSLF	0.67 ± 0.028
PPHGPPPLPPPS	0.678 ± 0.15
PPHIIPHPKAHT	0.687 ± 0.017
PPHLPPPPSPSV	0.6729 ± 0.0053
PPHPAPPLQPQT	0.64 ± 0.14
PPHPPPVTPHAS	0.722 ± 0.029

Sequence	protein stability index
PPHPPRCRRSPC	0.718 ± 0.037
PPHPPYPPQPSL	0.7021 ± 0.005
PPHPQRANAPGH	0.6615 ± 0.0057
PPHTSPLSPRPP	0.658 ± 0.052
PPIPLPPLAPPL	0.699 ± 0.038
PPLALLLSPVPP	0.688 ± 0.046
PPLAPASPSPLP	0.698 ± 0.023
PPLCTTPTPRRV	0.735 ± 0.041
PPLFPPPPPLPR	0.718 ± 0.027
PPLFTLSFSHFV	0.679 ± 0.021
PPLHPPLPPPPS	0.71 ± 0.06
PPLLALSASRVT	0.698 ± 0.017
PPLLLLRRRSPS	0.699 ± 0.062
PPLLPPPPPPAP	0.666 ± 0.032
PPLLPYHPTRFD	0.713 ± 0.012
PPLLRAPLLPPC	0.708 ± 0.021
PPLPAPPPLRPP	0.606 ± 0.012
PPLPAPSPPAPP	0.68 ± 0.022
PPLPDSPPPVPP	0.633 ± 0.017
PPLPFPSLPTPP	0.696 ± 0.042
PPLPLPPLALTR	0.722 ± 0.037
PPLPLPPRPTPP	0.716 ± 0.071
PPLPPLSPAPPR	0.681 ± 0.0073

Sequence	protein stability index
PPLPPPHLAFLH	0.685 ± 0.035
PPLPPPIPLRPP	0.539 ± 0.02
PPLPPPLPHRPL	0.716 ± 0.078
PPLPPPPLLPAP	0.726 ± 0.019
PPLPPPPSPALL	0.75 ± 0.019
PPLPPPTPRPAP	0.754 ± 0.058
PPLPPPVYHSLP	0.6855 ± 0.0027
PPLPRPPLPTSL	0.649 ± 0.045
PPLPYPCPPVFV	0.581 ± 0.012
PPLRPPAPEPSP	0.659 ± 0.0092
PPLSHPPPPLPL	0.681 ± 0.037
PPLSLRPDLPVF	0.649 ± 0.0098
PPLSPPHRPPHS	0.71 ± 0.065
PPLSPSLPPSPS	0.681 ± 0.0089
PPLTSSVCFSLI	0.665 ± 0.098
PPNGAATTQDRL	0.699 ± 0.011
PPNPSTPSACPP	0.717 ± 0.052
PPPAPLPLPAST	0.645 ± 0.019
PPPAPLRSLSTP	0.701 ± 0.024
PPPAPPPPLPPR	0.688 ± 0.028
PPPAPRPPLSLP	0.621 ± 0.017
PPPAPSPLPLFP	0.7 ± 0.045
PPPAPTQTALPP	0.7028 ± 0.0057

Sequence	protein stability index
PPPATNSLPGFE	0.672 ± 0.0099
PPPAWTPPPRTA	0.7163 ± 0.001
PPPDHSPPPCPP	0.6857 ± 0.0037
PPPDSSLPLGSP	0.688 ± 0.0081
PPPGPLFPSFPL	0.663 ± 0.051
PPPGPNPPSSPS	0.758 ± 0.036
PPPGPRQRPPPH	0.665 ± 0.087
PPPHASLSHCHS	0.687 ± 0.11
PPPHGPPPPPLP	0.648 ± 0.055
PPPHHPIMPAKQ	0.63 ± 0.027
PPPHPPLPTFDP	0.707 ± 0.05
PPPHPPPLAIPP	0.767 ± 0.075
PPPISPRPPRRA	0.708 ± 0.0094
PPPLCSIPPILL	0.705 ± 0.034
PPPLHPPPPPPA	0.704 ± 0.037
PPPLLPHLLLPP	0.611 ± 0.12
PPPLLSHPFLPP	0.69 ± 0.057
PPPLPAPPFSVF	0.649 ± 0.028
PPPLPLPPITPT	0.53 ± 0.078
PPPLPPGPALPL	0.732 ± 0.012
PPPLPPICTRPI	0.627 ± 0.099
PPPLPPPILLRF	0.598 ± 0.024
PPPLPPPPLPGL	0.676 ± 0.0084

Sequence	protein stability index
PPPLPPPSPCPL	0.702 ± 0.018
PPPLPPSPLLPP	0.701 ± 0.019
PPPLPRPFPPFP	0.697 ± 0.019
PPPLPSPLPLPP	0.644 ± 0.033
PPPLRLPQSRLP	0.722 ± 0.09
PPPLSPFTTPPS	0.7493 ± 0.00077
PPPLSQSPPSRR	0.612 ± 0.029
PPPLTSPPHPPP	0.724 ± 0.029
PPPPAPPPAPPP	0.558 ± 0.019
PPPPAPYPNYYS	0.542 ± 0.0062
PPPPCPSYLPPS	0.693 ± 0.046
PPPPFAAALSTP	0.69 ± 0.039
PPPPFLCSPFVA	0.6905 ± 0.00081
PPPPGLPSSPPP	0.625 ± 0.051
PPPPHAPSASPP	0.668 ± 0.022
PPPPHSFTPSGH	0.673 ± 0.12
PPPPLPASHPSP	0.707 ± 0.044
PPPPLPHPALPP	0.675 ± 0.04
PPPPLPPLPGTL	0.657 ± 0.045
PPPPLPPPPVLT	0.7 ± 0.051
PPPPLPPPSPPL	0.7319 ± 0.0043
PPPPPAPPPLCY	0.663 ± 0.045
PPPPPHHRPPSS	0.709 ± 0.077

Sequence	protein stability index
PPPPPHLPPLTP	0.711 ± 0.054
PPPPPHPRSPLS	0.738 ± 0.037
PPPPPHPTSPFP	0.751 ± 0.048
PPPPPHVHPPSP	0.689 ± 0.042
PPPPPLPALPLL	0.84 ± 0.081
PPPPPLPPPPPP	0.593 ± 0.021
PPPPPLSLLLPP	0.703 ± 0.032
PPPPPNPIPPTF	0.713 ± 0.028
PPPPPPLLPPPA	0.7302 ± 0.0037
PPPPPPLPAPPH	0.693 ± 0.029
PPPPPPPFCLAP	0.718 ± 0.0079
PPPPPPPHSSLS	0.709 ± 0.0078
PPPPPPPLAPPL	0.685 ± 0.021
PPPPPPPLPHPP	0.595 ± 0.058
PPPPPPPLRFIF	0.618 ± 0.035
PPPPPPPPFSHS	0.712 ± 0.022
PPPPPPPPLPAP	0.664 ± 0.018
PPPPPPPPPLLP	0.7031 ± 0.006
PPPPPPPPPSTP	0.744 ± 0.016
PPPPPPPPRRPP	0.595 ± 0.047
PPPPPPPRGPPR	0.627 ± 0.014
PPPPPPPRPLTP	0.68 ± 0.059
